Measured values reported in patent publication US20210101953A1 (ZHEJIANG K2 ONCOLOGY, published 2021).
Values belong to the binder of their own block, whether it stands above or below them.

Key:
[1] = target: T1, EpCAM protein on Skov3 cells (UniProt P16422 24-314, limits assumed); test: staining of fixed Skov3 cells, detected with anti-human IL-2 antibody and DAB
T1 construct: whole, on cells; also called cellular level EpCAM; epithelial cell adhesion molecule
T1 sequence (looked up): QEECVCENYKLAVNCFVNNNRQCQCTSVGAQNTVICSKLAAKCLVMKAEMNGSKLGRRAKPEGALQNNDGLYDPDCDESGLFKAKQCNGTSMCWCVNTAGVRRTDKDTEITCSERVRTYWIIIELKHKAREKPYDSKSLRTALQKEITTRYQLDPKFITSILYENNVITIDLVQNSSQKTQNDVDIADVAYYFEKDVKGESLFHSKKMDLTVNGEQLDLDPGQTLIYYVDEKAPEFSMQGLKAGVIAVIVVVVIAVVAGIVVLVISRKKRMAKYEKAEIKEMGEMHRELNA
Description: Skov3 cells have adherent growth in a 24-pore plate for 24 hours and are fixed for 10 minutes using 4% PFA (paraformaldehyde); 5% BSA is added to block non-specific antigens; a primary antibody of anti-human IL-2 is added for incubation for 1 hour; after washing is performed 3 times with PBST, a secondary antibody is added; after incubation is performed for 1 hour, DAB (diaminobenzidine) is added for color development; and after washing is performed with PBS, photographing is performed under a bright-field microscope.

[2] = target: T2, recombinant human EpCAM protein (Sino biologics, Product Number 10694-H08H) (human, UniProt P16422 24-265); test: ELISA on coated recombinant human EpCAM, bound protein detected by its IL-2 part with an IL-2 ELISA kit
T2 construct: Bought protein coated on the ELISA plate at 1 ug/ml
T2 sequence (looked up): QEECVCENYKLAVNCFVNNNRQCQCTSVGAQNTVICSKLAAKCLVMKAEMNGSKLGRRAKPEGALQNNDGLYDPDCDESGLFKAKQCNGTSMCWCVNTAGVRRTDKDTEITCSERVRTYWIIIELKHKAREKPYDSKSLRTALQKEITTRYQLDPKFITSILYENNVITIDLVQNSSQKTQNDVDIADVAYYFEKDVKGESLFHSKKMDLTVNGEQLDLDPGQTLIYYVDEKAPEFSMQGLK
Description: 2. […] [0069] ii. IL-2 level detection: an IL-2 ELISA commercial kit (Manufacturer: Biolegend; Product Number 431801) is adopted; the brief steps include adding a primary antibody of anti-human IL-2, incubating for 1 hour and then adding a horseradish peroxidase labeled secondary antibody to obtain a […] signal by TMB color development. [0070] iii. Data processing: a standard curve is obtained by using an IL-2 standard product included in the kit, and the IL-2 signal level corresponding to the amount of protein bound to EpCAM is calculated, which represents the level of the protein bound to EpCAM.

binding result [1]: binds
binding result [2]: binds
B1: fusion protein EPIL-2-2303301 of the anti-EpCAM single-chain antibody and IL-2 (other)
chain: APTSSSTKKTQLQLEHLLLDLQMILNGINNYKNPKLTRMLTFKFYMPKKATELKHLQCLEEELKPLEEALNLAPSKNFHLRPRDLISNINVIVLELKGSETTFMCEYADETATIVEFLNRWITFSQSTISTLTGGGGSGGGGSGGGGSGGGGSEVQLLEQSGAELVKPGASVKISCKASGYAFTNYWLGWVKQRPGHGLEWIGDLFPGSGNTHYNERFRGKATLTADKSSSTAFMQLSSLTSEDSAVYFCARLRNWDEAMDYWGQGTTVTVSSGGGGSGGGGSGGGGSELVMTQSPSYLAASPGETITINCRASKSISKYLAWYQEKPGKTNKLLIYSGSTLQSGIPSRFSGSGSGTDFTLTISSLEPEDFAMYYCQQHNEYPYTFGGGTKLEIKHHHHHH
notes: Single chain; Expressed in HEK293 cells and purified on Ni-Sepharose

binding result [1]: binds
binding result [2]: binds
B2: fusion protein EPIL-2-2303407 of the anti-EpCAM single-chain antibody and IL-2 (other)
chain: APTSSSTKKTQLQLEHLLLDLQMILNGINNYKNPKLTRMLTFKFYMPKKATELKHLQCLEEELKPLEEALNLAPSKNFHLRPRDLISNINVIVLELKGSETTFMCEYADETATIVEFLNRWITFSQSTISTLTGGGGSGGGGSGGGGSGGGGSEVQLLEQSGAELARPGASVKLSCKASGYTFTNYGLSWVKQRPGQVLEWIGEVYPRIGNAYYNEKFKGKATLTADKSSSTASMELRSLTSEDSAVYFCARRGSYDTNYDWYFDVWGQGTTVTVSSGGGGSGGGGSGGGGSELVMTQTPLSLPVSLGDQASISCRSSQSLVHSNGNTYLHWYLQKPGQSPKLLIYKVSNRFSGVPDRFSGSGSGTDFTLKISRVEAEDLGVYFCSQSTHVPYTFGGGTKLEIKHHHHHH
notes: as for B1
